Sequences and labels used below:
B1: TPR t1 (parent)
chain: GACCAAUCUGCCCUCAGAGCUCGAGAACAUCUUCGGAUGCAGAGGAGGCAGGCUUCGGUGGCGCGAUAGCGCCAACGUCCUCAACCUCCAAUGCAUCCCACCACAUGAUGAUGCCUGAAGAGCCUUGGUUUUUUG

The variants in the data set derive from B1. Description: polymerase ribozyme fitness, log enrichment relative to wild type (log ratio); higher = more active; in vitro selection for triplet polymerase activity. In short, it runs like this:
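A heterodimeric triplet polymerase ribozyme had each of its subunits mutagenized by PCR into a library, which was transcribed. One round of in vitro selection, done in triplicate, annealed each library with a biotinylated primer, its partner subunit and triplets, then incubated it frozen at −7 °C before gel excision of extended constructs, streptavidin-bead capture and RT-PCR. Fitness is the logarithm of genotype enrichment relative to wild-type enrichment, based on Illumina sequencing of inputs and outputs and inverse-variance-weighted replicate averages. A base-2 logarithm is used, and genotypes were kept only with ≥10 input reads and ≥1 read per output.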
As for G52C C56U U78G G128C, the “polymerase ribozyme fitness (log ratio)” value was -2.87.
Under C53A C79A stands -3.06; under C53U C62U, -1.01.
Under U54A C62U C72G stands -1.24; under G52U C82A A83U G127C, -2.33; under C53A C88U C104U, 0.665.
In the case of C53U U132A it was -0.215; in that of C56A C80U G120C C123G, -0.961.
For the variant U54C C72U C82U A83C C115G G117A U129C, the “polymerase ribozyme fitness (log ratio)” value is -4.96.
Under U55A C101U A121U stands 1.89; under U54G C94A C114A, -3.33.
In the case of U55A C56G C89U C124A it was 0.651; in that of U55G C62A A74U C102A, -5.52; in that of G52U U106G, -3.09.
In the case of C53U C62A U78C it was -1.46; in that of G52U U55A A83G U106A C115U, -5.1.
As for C53G G60C C98A C102A, the “polymerase ribozyme fitness (log ratio)” value was -6.1.
In the case of U55C A121G it was 1.84; in that of C53U C123G, 1.61; in that of C56A G60A, -0.181.
For the variant C56A C86G C102A, the “polymerase ribozyme fitness (log ratio)” value was -3.16.
For the variant C53A C62G A108G, the “polymerase ribozyme fitness (log ratio)” value is -3.91.
In the case of C53A A74U C89U it was -0.387.
In the case of U54A C98G U112C it was -3.86; in that of G52U G69A C94A C104U A118G, -5.65; in that of C56A C72U U109G, -5.76.
Take C56A C86A: the “polymerase ribozyme fitness (log ratio)” value was -0.76.
Under C56A G61A G110U stands -4.01; under C53A C70U G117A A121C, -1.08; under G52U U132A, -0.57.
In the case of C56A A111U U129C it was -4.47; in that of U54G G60U C115A, -3.58.
Under C53G C80G C115A stands -2.69; under C53G C99U, -3.54; under C53G U78C C82U G120A, 0.0778.
C53G C72A C82G: the “polymerase ribozyme fitness (log ratio)” value was -0.867.
Under C53A C56U U106C stands -0.479; under C53U G69A A103C G120U G128C U131G, -6.03; under C56A A119G, 0.651.
In the case of C53U C56U C89A G120A it was -1.49; in that of U54G A95G U130A, -1.11; in that of C53U C80U, -0.665.
In the case of G52U C98U it was -2.89; in that of G52U A68U A83C C101G C115U, -7.12; in that of C53G C73U G113C A121C, -2.12.
For the variant C53U C56U A91U, the “polymerase ribozyme fitness (log ratio)” value is -1.65.
As for C53A C64U U78C C104A, the “polymerase ribozyme fitness (log ratio)” value was -0.646.
In the case of C53A G71U C86U A100U G110U it was -4.31; in that of U54C G61C C73A G93U, -2.61.
Take U54A C70G: the “polymerase ribozyme fitness (log ratio)” value is -2.37.
Under C56A C124G stands 1.08.
In the case of C56A C124U it was 1.18.
Under C53U G71A stands -0.671; under C53U C104U, 0.142.
As to C53A G69U A105U, the “polymerase ribozyme fitness (log ratio)” value was -0.0597.
With U55A A84C, the “polymerase ribozyme fitness (log ratio)” value turned out to be 0.0901.
For U54C C124U, the “polymerase ribozyme fitness (log ratio)” value was determined as 1.81.
Under C53A C88U U106G stands -1.18.
Under C53G C114A U125C stands -2.07; under U55G C73U G110A, -0.834; under C53A C82U C88G A118U, -0.344.
In the case of C53U G120A U130A it was 0.491; in that of C56A A68G G120C, -4.19; in that of C53U C85G, -2.01.
For the variant G52U C56U C62U U130A, the “polymerase ribozyme fitness (log ratio)” value is -1.37.
Under U55C G58A U92C stands -0.821; under G52C C72G C104U, -0.739.
Under U55C C85A stands -2.73.
In the case of U54C C115U it was -0.738; in that of U54C C115A, -0.609.
On to G52U C73G U92C C104U U116C U129A, for which the “polymerase ribozyme fitness (log ratio)” value is -4.98.
In the case of U54G G117A it was -2; in that of U54G C56G C80G A84G G117U, -6.69; in that of G52C C56U C82U A84C, 0.272.
Turning to C53U C99U, the “polymerase ribozyme fitness (log ratio)” value is -2.93.
In the case of U54C C86G C88A C101U U129C, the “polymerase ribozyme fitness (log ratio)” value is -3.66.
Under U54G G63U C88U C89A A103U G122U C124A stands -7.39; under G52U G93U G110U, -3.97.
On to U55A G57A G71C G113A, for which the “polymerase ribozyme fitness (log ratio)” value was -2.54.
Under U55C C70A C97U U116A stands -4.83; under U55C G58A, 0.121; under U55G C79A C82U, -1.09.
In the case of C53G U130A it was -0.508; in that of U54A U87A G117U, -2.44.
Under C56A G63C stands -2.33; under C53A G135A, 0.127.
G52U C62U C82A C102U C123G: the “polymerase ribozyme fitness (log ratio)” value is -2.65.
Under U55G G63U A108G stands -2.44; under C53U A66G U112A, -0.539.
Under U54G C104G stands -7.42.
In the case of G52U C76A A105U it was -3.02; in that of U54A C64U A105U, -2.69.
In the case of U55A G57C U78C A103G C124A U125A, the “polymerase ribozyme fitness (log ratio)” value is -4.66.
Under G52U C99U U132C stands -4.08; under C53A G93A, -0.768; under G52U A83U C98U, -2.49.
With U54A C56U U133A, the “polymerase ribozyme fitness (log ratio)” value is -0.112.
In the case of G52U C88U C98A G120U it was -5.88; in that of C53G U106G, -2.14; in that of C53A G61A C79A, -0.911.
Under U54A A108U stands -4.71; under G52C C70U U106A, -1.07.
Under G52C C56G G71U stands -3.4; under U54A C56U G93A, 0.304.
Take U55G U116G: the “polymerase ribozyme fitness (log ratio)” value was -2.12.
Under C53G C86A stands -1.75; under C53A U78G C82A, 0.638; under C53U C80U U81C G120A, -3.73.
Under G52C G71C C102U C104A stands -3.27; under C53U A74C, -0.315.
In the case of C53A C70U C115A A118U it was -1.34; in that of G52C C72U C86U C89U A105U, -4.77; in that of C56A G71U U78G A105G A119U G122A, -5.65.
In the case of C53A U54A C56U C101U, the “polymerase ribozyme fitness (log ratio)” value was 0.471.
Under C56A C99U C102U stands -5.77; under C53G C114G, -3.08.
In the case of C53U C70U A74G it was -3.92; in that of C53U G122A, -0.631; in that of U55A G57A U112G, -0.322.
On to U54G G57U G120A, for which the “polymerase ribozyme fitness (log ratio)” value worked out at 0.132.
In the case of U55C C56U U125A it was -0.641.
In the case of C53G G77C it was -0.807.
Under C53U G107U stands -4.06; under C53G C124U U129A, -0.596; under C53A G57C U78A U112A A119G, 2.05.
G52U C72G: the “polymerase ribozyme fitness (log ratio)” value stood at 0.452.
Regarding G52U G77C, the “polymerase ribozyme fitness (log ratio)” value is -0.813.
In the case of C53U G63A it was -1.18; in that of C53G U92A, -3.48.
Under U54C U81C A95C stands -0.789; under U55G C85A, -1.66.
In the case of G52U G120A it was -0.091; in that of G52U G120C, -0.122; in that of G52C U116C, -1.72.
For the variant U55G G69A U112C G120C, the “polymerase ribozyme fitness (log ratio)” value is -2.49.
As for C56A C72U C104A, the “polymerase ribozyme fitness (log ratio)” value is -1.61.
For the variant U55A G93A A121U, the “polymerase ribozyme fitness (log ratio)” value is 1.57.
In the case of C53A A74U U125A it was -1.05; in that of G52U C72U U78C A121C, 1.26.
Under C53A U55A C88U C89U stands -0.643; under C56A C82A G128A, -2.53.
Under C53G C56G stands -0.593; under C53G C56A, -0.204; under U54C C97G C123U, -2.86.
As for U54A U55G G61A C80U, the “polymerase ribozyme fitness (log ratio)” value is -0.516.
For the variant C53A G69A C124A, the “polymerase ribozyme fitness (log ratio)” value is -0.263.
As for C53U C79G, the “polymerase ribozyme fitness (log ratio)” value is -1.2.
In the case of C53G C62U A119U it was -0.561.
In the case of C53U C72A U130A it was -0.183; in that of U55G G77C A100U G120C U131A, 0.465.
In the case of C53A U130A it was 0.226; in that of C53U G61A A105C, -2.22.
Turning to G52U A105G, the “polymerase ribozyme fitness (log ratio)” value was -3.17.
Under C56A C79A A95C C101U U129A stands -4.76; under U54A G113U C114G A121C, -2.43.
With U54C G71A C102A C123A, the “polymerase ribozyme fitness (log ratio)” value was -3.7.
In the case of G52U G60A G69A C82A C102U C123G it was -6.73; in that of U54G C89A U131G, -2.74.
Under C56A C94U stands -0.146.
Regarding C53A U112G, the “polymerase ribozyme fitness (log ratio)” value is -0.496.
In the case of G52U U130C it was -0.807; in that of C53U U55G, -0.16; in that of C53A G60A, -0.364.
Under C53A C99U stands -4.03; under U54C C56U U133G, 0.0417.
In the case of U54C C73U A83U G113U U134G it was -2.89; in that of C56A C73U C124A, 1.29.

The values are drawn from the RNAGym collection of RNA variant scans (doi:10.1073/pnas.2313332121).
